{"source": "paper PMC7238435", "molecular_target": "recombinant human cartilage oligomeric matrix protein (COMP) (human) (UniProt P49747)", "assay": "atomic force microscopy", "data": [{"substance": "recombinant human cartilage oligomeric matrix protein (COMP), P49747 21-757 (natural protein; other documents disagree on this pair)", "values": [{"measurement": "stoichiometry N", "result": 5}]}]}
